The record followed here is patent US8357515.

Data set [1] relates to LAP-mIL-4 fusion protein with aggrecanase cleavage site B06 (DVQEFRGVTAVIR).
Target sequence (chain, as listed by the source): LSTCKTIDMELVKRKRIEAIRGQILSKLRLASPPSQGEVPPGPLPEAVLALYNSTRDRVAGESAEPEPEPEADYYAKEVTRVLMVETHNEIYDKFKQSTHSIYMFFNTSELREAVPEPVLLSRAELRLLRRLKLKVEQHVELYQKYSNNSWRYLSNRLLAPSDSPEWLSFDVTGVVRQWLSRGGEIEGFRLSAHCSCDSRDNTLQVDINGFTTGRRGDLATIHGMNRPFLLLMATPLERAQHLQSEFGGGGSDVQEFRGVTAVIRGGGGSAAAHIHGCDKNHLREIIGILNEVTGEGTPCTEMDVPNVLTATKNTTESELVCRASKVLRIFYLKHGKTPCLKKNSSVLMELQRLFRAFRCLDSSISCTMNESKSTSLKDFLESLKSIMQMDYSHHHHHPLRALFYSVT
In data set [2] the test system is LAP-mIL-4 fusion protein with aggrecanase cleavage site B05 (HNEFRQRETYMVF).
Target sequence (chain, as listed by the source): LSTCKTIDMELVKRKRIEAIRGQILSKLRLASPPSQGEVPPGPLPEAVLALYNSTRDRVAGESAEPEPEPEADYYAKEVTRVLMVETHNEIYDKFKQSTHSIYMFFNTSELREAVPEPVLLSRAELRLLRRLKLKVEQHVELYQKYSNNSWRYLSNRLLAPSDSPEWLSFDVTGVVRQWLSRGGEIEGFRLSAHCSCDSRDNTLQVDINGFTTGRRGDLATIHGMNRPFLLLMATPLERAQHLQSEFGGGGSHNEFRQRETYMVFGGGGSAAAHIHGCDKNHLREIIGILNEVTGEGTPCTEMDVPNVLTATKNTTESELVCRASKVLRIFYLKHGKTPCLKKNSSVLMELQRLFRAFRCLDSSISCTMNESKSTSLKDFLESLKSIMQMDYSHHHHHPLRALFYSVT

B1: ADAMTS-4 (aggrecanase-1), recombinant (enzyme, UniProt O75173 213-837, looked up, species assumed)
A disintegrin and metalloproteinase with thrombospondin motifs 4: FASLSRFVETLVVADDKMAAFHGAGLKRYLLTVMAAAAKAFKHPSIRNPVSLVVTRLVILGSGEEGPQVGPSAAQTLRSFCAWQRGLNTPEDSDPDHFDTAILFTRQDLCGVSTCDTLGMADVGTVCDPARSCAIVEDDGLQSAFTAAHELGHVFNMLHDNSKPCISLNGPLSTSRHVMAPVMAHVDPEEPWSPCSARFITDFLDNGYGHCLLDKPEAPLHLPVTFPGKDYDADRQCQLTFGPDSRHCPQLPPPCAALWCSGHLNGHAMCQTKHSPWADGTPCGPAQACMGGRCLHMDQLQDFNIPQAGGWGPWGPWGDCSRTCGGGVQFSSRDCTRPVPRNGGKYCEGRRTRFRSCNTEDCPTGSALTFREEQCAAYNHRTDLFKSFPGPMDWVPRYTGVAPQDQCKLTCQAQALGYYYVLEPRVVDGTPCSPDSSSVCVQGRCIHAGCDRIIGSKKKFDKCMVCGGDGSGCSKQSGSFRKFRYGYNNVVTIPAGATHILVRQQGNPGHRSIYLALKLPDGSYALNGEYTLMPSPTDVVLPGAVSLRYSGATAASETLSGHGPLAQPLTLQVLVAGNPQDTRLRYSFFVPRPTPSTPRPTPQDWLHRRAQILEILRRRPWAGRK
For B1, the “cleavage of the fusion protein in 293T supernatant after overnight incubation at 37 C, Western blot probed with anti-IL-4 antibody” value in data set [1] is “the Agg1 and Agg2 constructs are cleaved by ADAMTS-4”; in data set [2], “the Agg1 and Agg2 constructs are cleaved by ADAMTS-4”; with LAP-MMP IL-4, “LAP-MMP IL-4 is only cleaved by MMP-1 (not cleaved by aggrecanase)”.
